Test results reported in patent US20050096268A1.

Tests used:
human IL-13 (human) [1] = biological target: human IL-13 (human) (UniProt P35225); test: Biacore SPR; human IgG1 immobilized, 100 ng/ml human IL-13 injected
human IL-13 (human) [2] = biological target: human IL-13 (human) (UniProt P35225); test: Biacore SPR; IL-11R-Ig immobilized, 100 ng/ml human IL-13 injected
murine IL-13 (murine) = murine IL-13 (murine) (UniProt P20109); test: cell-based or functional assay
Chain of UniProt P20109 (P20109 21-131 limits assumed): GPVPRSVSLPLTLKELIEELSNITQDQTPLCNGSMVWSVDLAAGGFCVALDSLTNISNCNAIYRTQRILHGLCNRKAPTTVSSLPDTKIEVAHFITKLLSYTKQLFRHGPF

Chain of UniProt P35225 (P35225 35-146 limits assumed): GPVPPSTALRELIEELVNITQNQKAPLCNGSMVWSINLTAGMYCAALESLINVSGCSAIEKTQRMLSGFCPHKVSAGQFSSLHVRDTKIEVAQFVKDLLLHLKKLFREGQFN

human IgG1 (IgG control) (antibody) showed an RU bound (human IL-13 (human) [1]) of 5.4 RU.

Work on IL-11R-Ig (Fc fusion) yielded an RU bound (human IL-13 (human) [2]) of 3.7 RU.

With “soluble IL-13 receptor α2-Fc fusion protein (sIL-13Rα2-Fc) (from UniProt O88786 22-331)” the in vitro ID50 in the B9 proliferation assay (murine IL-13 (murine)) was 10 ng/mL.
